Patent US20260146077A1 (US Dept. of Health and Human Services, published 2026)
Numbering of substitutions follows the chain as printed.

B1: A23-58.1HC/58.1LC_94GLTG (antibody, V domains shown)
VH: not shown
VL: EIVLTQSPGTLSLSPGERATLSCRASQSVSSSYLAWYQQKPGQAPRLLIYSASSRATGIPDRFSGSGSGTDFTLTISRLEPEDFAVYFCQQYGGLTGWTFGQGTKVEIK
B2: A23-58.1HC/58.1LC_93VGLTG (antibody, V domains shown)
VH: not shown
VL: B1 VL with G93V
B3: B1-182.1HC/S2E12LC (antibody, V domains shown)
VH: not shown
VL: B1 VL with E1D, S7T, S51G, F88Y, G93V
B4: S2E12 (antibody, V domains shown)
VH: not shown
VL: B1 VL with E1D, S7T, S51G, F88Y, G93V
B5: B1-182.1HC_F100cS/S2E12LC (antibody, V domains shown)
VH: not shown
VL: B1 VL with E1D, S7T, S51G, F88Y, G93V
B6: A23-58.1HC/58.1LC_94GLT (antibody, V domains shown)
VH: not shown
VL: EIVLTQSPGTLSLSPGERATLSCRASQSVSSSYLAWYQQKPGQAPRLLIYSASSRATGIPDRFSGSGSGTDFTLTISRLEPEDFAVYFCQQYGGLTWTFGQGTKVEIK

molecular target: BA.4.6; experiment: cell-based or functional assay

Binder	neutralization IC50	neutralization IC80
B1	4.2 ng/mL	15.7 ng/mL
B2	4.1 ng/mL	14.8 ng/mL

molecular target: SARS-CoV-2 spike protein, BA.2 (SARS-CoV-2, UniProt P0DTC2 14-1273); experiment: cell-based or functional assay

Binder	neutralization IC50	neutralization IC80
B3	6.3 ng/mL	28 ng/mL
B4	9.9 ng/mL	48.2 ng/mL
B5	9.4 ng/mL	31.7 ng/mL

molecular target: BA.2.75; experiment: cell-based or functional assay

Binder	neutralization IC50	neutralization IC80
B1	1 ng/mL	3.1 ng/mL
B2	0.9 ng/mL	3 ng/mL

molecular target: T1, SARS-CoV-2 spike protein, BA.2.12.1 (SARS-CoV-2, UniProt P0DTC2 14-1273); experiment: cell-based or functional assay

Binder	neutralization IC80	neutralization IC50
B6	105 ng/mL	–
B1	9.2 ng/mL	1.9 ng/mL
B3	35 ng/mL	11.5 ng/mL
B4	46.6 ng/mL	15.6 ng/mL
B2	11.5 ng/mL	3.4 ng/mL
B5	54.2 ng/mL	14.9 ng/mL

molecular target: SARS-CoV-2 spike protein, B.1.351 (SARS-CoV-2, UniProt P0DTC2 14-1273); experiment: cell-based or functional assay

Binder	neutralization IC50	neutralization IC80
B1	1.8 ng/mL	4.4 ng/mL
B3	0.8 ng/mL	4.4 ng/mL
B4	3.9 ng/mL	8.7 ng/mL
B2	2.7 ng/mL	5 ng/mL
B5	1.5 ng/mL	4.4 ng/mL

molecular target: SARS-CoV-2 spike protein, BA.1.1 (SARS-CoV-2, UniProt P0DTC2 14-1273); experiment: cell-based or functional assay

Binder	neutralization IC50	neutralization IC80
B3	4.7 ng/mL	24.2 ng/mL
B4	15.5 ng/mL	55.4 ng/mL
B5	8.4 ng/mL	20 ng/mL

molecular target: SARS-CoV-2 spike protein, B.1.617.2 (SARS-CoV-2, UniProt P0DTC2 14-1273); experiment: cell-based or functional assay

Binder	neutralization IC50	neutralization IC80
B1	2.9 ng/mL	11.2 ng/mL
B3	1.1 ng/mL	2.9 ng/mL
B4	1.2 ng/mL	2.6 ng/mL
B2	5.8 ng/mL	12.4 ng/mL
B5	1.2 ng/mL	3.3 ng/mL

molecular target: T2, SARS-CoV-2 spike protein, BA.1 (SARS-CoV-2, UniProt P0DTC2 14-1273); experiment: cell-based or functional assay

Binder	neutralization IC80	neutralization IC50
B6	46.4 ng/mL	–
B1	11.9 ng/mL	3.6 ng/mL
B3	45.2 ng/mL	9.9 ng/mL
B4	38.5 ng/mL	–
B2	11.2 ng/mL	3.3 ng/mL
B5	51.6 ng/mL	13.9 ng/mL

molecular target: T1, SARS-CoV-2 spike protein, BA.2.12.1; experiment: cell-based or functional assay; remark: another data set of the same source

Binder	pseudovirus neutralization IC50
B6	25 ng/mL

molecular target: T2, SARS-CoV-2 spike protein, BA.1; experiment: cell-based or functional assay; remark: another data set of the same source

Binder	BA.1 neutralization, fold improvement over A19-58.1	pseudovirus neutralization IC50	BA.1 neutralization, fold improvement over B1-182.1	fold loss in neutralization
B6	7 fold	13.7 ng/mL	–	–
B1	> 27 fold	–	–	–
B3	–	–	20 fold	–
B4	–	8.8 ng/mL	–	< 10 fold loss
B2	> 30 fold	–	–	–
B5	–	–	> 14 fold	–
